Measurements reported in publication PMC7932109 (Science (New York, N.y.), 2021).
Where a chain is given by its changes, count along the chain named.

B1: VHH U (VHH)
VHH: QVQLVESGGGLVQPGGSLRLSCAASGFTLDYYAIGWFRQAPGKEREGVSCISSSGGSTHFADSVKGRFTISRDNAKNTVYLQMNSLIPEDTAVYYCAAQSGSYYWCGSDWHEYEYWGQGTQVTVSS
notes: also called nanobody U; source: E. coli WK6, periplasmic extract, purified (Ni-NTA, desalting or gel filtration)
B2: VHH W (VHH)
VHH: B1 VHH with G56D, F60Y, A61V, I87K, E114D, W116R
notes: also called nanobody W; source: E. coli WK6, periplasmic extract, purified (Ni-NTA, desalting or gel filtration)
B3: VHH V (VHH)
VHH: QVQLVETGGGLVQPGGSLRLSCAASGFTFSSYAMGWARQVPGKGLEWVSYIYSDGSTEYQDSVKGRFTISRDNAKSTVYLQMNSLKPEDTAVYYCATEGSLGGWGRDFGSWGQGTQVTVSS
notes: also called nanobody V; source: E. coli WK6, periplasmic extract, purified (Ni-NTA, desalting or gel filtration)

What follows are binders tested against SARS-CoV-2 spike receptor binding domain (RBD), residues 319 to 541 (SARS-CoV-2, UniProt P0DTC2, biotinylated for SPR; DyLight 488 (NHS ester) for the ACE2-RBD binding assay; no label told for ELISA and crystals) (assay: SPR). Conditions: both partners purified.
B1 gave a Kd of 21 nM.
B2 gave a Kd of 22 nM.
With B3 the Kd was 9 nM.
